Assay results reported in patent US20250320303A1 (SHENGHE CHINA BIOPHARMACEUTICAL, published 2025).

T1: human W3785-hProl.ECD.His (Human-TNFR2-His) protein (human, UniProt P20333 23-257)
T1 construct: extracellular domain; not shown: His tag
T1 sequence (looked up): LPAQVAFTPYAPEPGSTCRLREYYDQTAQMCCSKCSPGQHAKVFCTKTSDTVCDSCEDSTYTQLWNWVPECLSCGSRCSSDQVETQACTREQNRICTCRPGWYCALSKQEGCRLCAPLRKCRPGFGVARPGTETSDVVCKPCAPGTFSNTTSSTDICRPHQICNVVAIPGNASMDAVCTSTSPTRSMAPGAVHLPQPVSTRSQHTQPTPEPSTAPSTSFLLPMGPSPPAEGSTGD


Tests used:
[1] = biological target: T1, human W3785-hProl.ECD.His …; experiment: BLI (Octet Red96e), antibody on AHC sensor, Human-TNFR2-His in solution, multiple concentrations
[2] = biological target: T1, human W3785-hProl.ECD.His …; experiment: indirect ELISA on coated Human-TNFR2-His
Method: (1) Coating: Human-TNFR2-His was diluted to 0.5 μg/mL with coating solution (1×PBS, pH 7.4), and coated into a 96-well ELISA plate at 100 μL/well at 4° C. overnight. The coating solution was poured off, and the plate was washed with 1×PBST at 300 μL per well, washed with a plate cleaning instrument for 4 times, and patted dry on sheet paper. [0184] (2) Blocking: it was blocked with 3% non-fat dry milk at 300 μL/well, and incubated at 37° C. for 1 h. The blocking solution was poured off, washed by a plate cleaning instrument for 4 times, and patted dry on sheet paper. [0185] (3) Sample dilution: the reference product and the test product were diluted with 3% non-fat dry milk to 10 μg/mL, and this was used as the initial concentration for 3-fold dilution with a total of 11 gradients of dilution, and another one blank well was set up, and only diluent was added. It was incubated at 100 μL/well at 37° C. for 1 h. Liquid in the wells was discarded, washed by a plate cleaning instrument for 4 times, and patted dry on the sheet paper. [0186] (4) Addition of enzyme-labeled secondary antibody: Peroxidase-conjugated AffiniPure F(ab′)2 Fragment Goat Anti-Human IgG was diluted with 3% non-fat dry milk at 1:20,000. It was incubated at 100 μL/well at 37° C. for 1 h. It was washed by a plate cleaning instrument for 6 times and patted dry on sheet paper. […] (5) Color development: TMB color development solution was added at 100 μL/well and wrapped with aluminium foil, and the color was developed at 37° C. without light for 8 min. [0188] (6) Termination of color development: terminal solution 1 M HCl was added to terminate the color development reaction at 100 μL/well. [0189] (7) Reading at 450 nm on the enzyme labeler. [0190]

Kd [1] [nM] | koff [1] [s⁻¹] | kon [1] [M⁻¹ s⁻¹] | EC50 [2] [ng/mL] | Binder
0.0863 | 0.000102 | 1.21e+06 | 13.5 | Antibody 12 (antibody, V domains shown, detected with anti-human IgG and captured on AHC sensors) VH: QVQLVQSGAEVKKPGASVKVSCKASGYTFTDYIIHWVRQAPGQGLEWMGWIDPDYGNTDYADKFKKRVTMTADTSISTAFMELSRLRSDDTAVYYCARDDGSPLVMDAWGQGTLVTVSS VL: DIQMTQSPSSLSASVGDRVTITCQGSQNIDNYLAWFQQKPGKAPKLLIYSTYSLQTGVPSRFSGSRSGTDFTLTISSLQPEDFATYFCFQYNNGYMFGGGTKLELK
0.133 | 0.000124 | 933000 | 14.9 | Antibody 17 (antibody, V domains shown, detected with anti-human IgG and captured on AHC sensors) VH: QVQLVQSGAEVKKPGASVKVSCKASGYTFTDYIIHWVRQAPGQGLEWMGWIDPDYGNTDYADKFKKRVTMTADTSISTAFMELSRLRSDDTAVYYCARDEGSPLVMDAWGQGTLVTVSS VL: DIQMTQSPSSLSASVGDRVTITCQGSQNIDNYLAWFQQKPGKAPKLLIYSTYSLQTGVPSRFSGSRSGTDFTLTISSLQPEDFATYFCFQYNNGYMFGGGTKLELK
2.06 |  |  | 3.2 | Antibody 15 (antibody, V domains shown, detected with anti-human IgG and captured on AHC sensors) VH: QVQLVQSGAEVKKPGASVKVSCKASGYTFTDYIIHWVRQAPGQGLEWMGWIDPDYGNTDYADKFKKRVTMTADTSISTAFMELSRLRSDDTAVYYCARDDASPLVMDAWGQGTLVTVSS VL: DIQMTQSPSSLSASVGDRVTITCQGSQNIDNYLAWFQQKPGKAPKLLIYSTYSLQTGVPSRFSGSRSGTDFTLTISSLQPEDFATYFCFQYNNGYMFGGGTKLELK
3.03 | 0.00282 | 931000 | 3.75 | Antibody 14 (antibody, V domains shown, detected with anti-human IgG and captured on AHC sensors) VH: QVQLVQSGAEVKKPGASVKVSCKASGYTFTDYIIHWVRQAPGQGLEWMGWIDPDYGNTDYADKFKKRVTMTADTSISTAFMELSRLRSDDTAVYYCARDDASPLVMDAWGQGTLVTVSS VL: DIQMTQSPSSLSASVGDRVTITCNGSQNIDNYLAWFQQKPGKAPKLLIYSTYSLQTGVPSRFSGSRSGTDFTLTISSLQPEDFATYFCFQYNNGYMFGGGTKLELK
0.117 | 0.000134 | 1.15e+06 | 20.3 | Antibody 16 (antibody, V domains shown, detected with anti-human IgG and captured on AHC sensors) VH: QVQLVQSGAEVKKPGASVKVSCKASGYTFTDYIIHWVRQAPGQGLEWMGWIDPDYGNTDYADKFKKRVTMTADTSISTAFMELSRLRSDDTAVYYCARDEGSPLVMDAWGQGTLVTVSS VL: DIQMTQSPSSLSASVGDRVTITCNGSQNIDNYLAWFQQKPGKAPKLLIYSTYSLQTGVPSRFSGSRSGTDFTLTISSLQPEDFATYFCFQYNNGYMFGGGTKLELK
0.0638 | 6.22e-05 | 974000 |  | Antibody 18 (antibody, V domains shown, captured on AHC sensors) VH: QVQLVQSGAEVKKPGASVKVSCKASGYTFTDYIIHWVRQAPGQGLEWMGWIDPDYGNTDYADKFKKRVTMTADTSISTAFMELSRLRSDDTAVYYCARDDGSPLVMDAWGQGTLVTVSS VL: DIQMTQSPSSLSASVGDRVTITCQGSQNIDNYLAWFQQKPGKAPKLLIYSTYSLQTGVPSRFSGSRSGTDFTLTISSLQPEDFATYFCFQYNQGYMFGGGTKLELK
0.117 | 0.000134 | 1.15e+06 | 4.96 | Antibody 13 (antibody, V domains shown, detected with anti-human IgG and captured on AHC sensors) VH: QVQLVQSGAEVKKPGASVKVSCKASGYTFTDYIIHWVRQAPGQGLEWMGWIDPDYGNTDYADKFKKRVTMTADTSISTAFMELSRLRSDDTAVYYCARDDGSPLVMDAWGQGTLVTVSS VL: DIQMTQSPSSLSASVGDRVTITCNGAQNIDNYLAWFQQKPGKAPKLLIYSTYSLQTGVPSRFSGSRSGTDFTLTISSLQPEDFATYFCFQYNNGYMFGGGTKLELK
1.48 | 0.00127 | 862000 |  | Antibody 19 (antibody, V domains shown, captured on AHC sensors) VH: QVQLVQSGAEVKKPGASVKVSCKASGYTFTDYIIHWVRQAPGQGLEWMGWIDPDYGNTDYADKFKKRVTMTADTSISTAFMELSRLRSDDTAVYYCARDDASPLVMDAWGQGTLVTVSS VL: DIQMTQSPSSLSASVGDRVTITCQGSQNIDNYLAWFQQKPGKAPKLLIYSTYSLQTGVPSRFSGSRSGTDFTLTISSLQPEDFATYFCFQYNQGYMFGGGTKLELK
0.766 | 0.000371 | 484000 |  | Antibody 23 (antibody, V domains shown, captured on AHC sensors) VH: EVQLVQSGAEVKKPGATVKISCKVSGYSITDYLLHWVQQAPGKGLEWMGWIDPEEGKTKYGQKFQSRVTITADTSTDTAYMELSSLRSEDTAVYYCAANSGTGTMDAWGQGTLVTVSS VL: DIVMTQSPATLSVSPGERATLSCKASQNVGSNVDWYQQKPGQSPRVLIYKASIRYTGIPARFSGSGSGTEFTLTISILQSEDFAVYFCMQSKSYPITFGQGTKLEIK
1.39 | 0.00193 | 1.39e+06 |  | Antibody 25 (antibody, V domains shown, captured on AHC sensors) VH: EVQLVQSGAEVKKPGATVKISCKVSGYSITDYLLHWVQQAPGKGLEWMGWIDPEEGKTKYGQKFQSRVTITADTSTDTAYMELSSLRSEDTAVYYCAAQSGTGTMDAWGQGTLVTVSS VL: DIVMTQSPATLSVSPGERATLSCKASQNVGSNVDWYQQKPGQSPRVLIYKASIRYTGIPARFSGSGSGTEFTLTISILQSEDFAVYFCMQSKSYPITFGQGTKLEIK
0.0551 | 1.41e-05 | 256000 |  | Antibody 26 (antibody, V domains shown, captured on AHC sensors) VH: EVQLVQSGAEVKKPGATVKISCKVSGYSITDYLLHWVQQAPGKGLEWMGWIDPEEGKTKYGQKFQSRVTITADTSTDTAYMELSSLRSEDTAVYYCAANSATGTMDAWGQGTLVTVSS VL: DIVMTQSPATLSVSPGERATLSCKASQNVGSNVDWYQQKPGQSPRVLIYKASIRYTGIPARFSGSGSGTEFTLTISILQSEDFAVYFCMQSKSYPITFGQGTKLEIK
0.537 | 0.00077 | 1.44e+06 |  | Antibody 27 (antibody, V domains shown, captured on AHC sensors) VH: EVQLVQSGAEVKKPGATVKISCKVSGYSITDYLLHWVQQAPGKGLEWMGWIDPEDAKTKYGQKFQSRVTITADTSTDTAYMELSSLRSEDTAVYYCAAQSGTGTMDAWGQGTLVTVSS VL: DIVMTQSPATLSVSPGERATLSCKASQNVGSNVDWYQQKPGQSPRVLIYKASIRYTGIPARFSGSGSGTEFTLTISILQSEDFAVYFCMQSKSYPITFGQGTKLEIK
< 0.001 | < 1e-07 | 225000 |  | Antibody 28 (antibody, V domains shown, captured on AHC sensors) VH: EVQLVQSGAEVKKPGATVKISCKVSGYSITDYLLHWVQQAPGKGLEWMGWIDPEDAKTKYGQKFQSRVTITADTSTDTAYMELSSLRSEDTAVYYCAANSATGTMDAWGQGTLVTVSS VL: DIVMTQSPATLSVSPGERATLSCKASQNVGSNVDWYQQKPGQSPRVLIYKASIRYTGIPARFSGSGSGTEFTLTISILQSEDFAVYFCMQSKSYPITFGQGTKLEIK
0.152 | 0.000109 | 718000 |  | Antibody 24 (antibody, V domains shown, captured on AHC sensors) VH: EVQLVQSGAEVKKPGATVKISCKVSGYSITDYLLHWVQQAPGKGLEWMGWIDPEDAKTKYGQKFQSRVTITADTSTDTAYMELSSLRSEDTAVYYCAANSGTGTMDAWGQGTLVTVSS VL: DIVMTQSPATLSVSPGERATLSCKASQNVGSNVDWYQQKPGQSPRVLIYKASIRYTGIPARFSGSGSGTEFTLTISILQSEDFAVYFCMQSKSYPITFGQGTKLEIK
